In patent publication US20180250392A1 (published 2018):
Substitutions are numbered along the chain they refer to.

B1: Mab 149 (B1C4_E5) (antibody, V domains shown)
VH: EVQLLESGGGLVQPGGSLRLSCAASGFTFSWYVMGWVRQAPGKGLEWVSSIYPSGGATNYADSVKGRFTISRDNSKNTLYLQMNSLRAEDTAVYYCARGNYLDYWGQGTLVTVSS
VL: DIQMTQSPGTLSLSPGEGATLSCRASQSVSSNYFGWYQQKPGQAPRLLIYGASSRATGIPDRFSGSGSGTDFTLTISRLEPEDSAVYYCQQFDSSPLSFGGGTKVEIKR
B2: Mab 147 (B1C4_A7) (antibody, V domains shown)
VH: B1 VH with S54Q, N59S, L102F
VL: B1 VL with S95L, S98T

Columns and labels:
[1] = target: T1, human VEGFR2 (soluble hVEGFR2) (human, UniProt P35968 20-764); assay: Biacore, human VEGFR2
T1 construct: also called KDR
T1 sequence (P35968 20-764 limits assumed): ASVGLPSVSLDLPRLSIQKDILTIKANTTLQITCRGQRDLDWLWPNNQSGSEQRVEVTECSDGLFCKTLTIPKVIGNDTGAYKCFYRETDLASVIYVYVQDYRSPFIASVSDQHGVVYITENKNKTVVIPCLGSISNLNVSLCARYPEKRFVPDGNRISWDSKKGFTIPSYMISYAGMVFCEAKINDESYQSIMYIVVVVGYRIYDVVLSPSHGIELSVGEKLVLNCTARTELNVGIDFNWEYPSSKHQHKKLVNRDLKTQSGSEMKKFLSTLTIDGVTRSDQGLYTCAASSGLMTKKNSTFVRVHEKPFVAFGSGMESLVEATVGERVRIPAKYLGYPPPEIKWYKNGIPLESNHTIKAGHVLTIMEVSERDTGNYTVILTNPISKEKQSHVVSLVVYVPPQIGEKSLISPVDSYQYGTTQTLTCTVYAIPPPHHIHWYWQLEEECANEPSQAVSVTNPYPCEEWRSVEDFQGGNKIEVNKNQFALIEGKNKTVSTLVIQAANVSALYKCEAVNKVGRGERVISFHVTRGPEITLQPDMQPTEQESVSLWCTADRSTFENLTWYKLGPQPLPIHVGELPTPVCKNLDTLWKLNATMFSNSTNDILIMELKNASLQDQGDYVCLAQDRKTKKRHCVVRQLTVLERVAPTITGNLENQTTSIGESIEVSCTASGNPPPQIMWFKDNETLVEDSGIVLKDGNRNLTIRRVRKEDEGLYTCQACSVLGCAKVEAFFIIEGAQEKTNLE

[2] = target: T2, murine VEGFR2 (soluble mVEGFR2) (murine, UniProt P35918 20-762); assay: Biacore, murine VEGFR2
T2 construct: also called mouse VEGFR2
T2 sequence (P35918 20-762 limits assumed): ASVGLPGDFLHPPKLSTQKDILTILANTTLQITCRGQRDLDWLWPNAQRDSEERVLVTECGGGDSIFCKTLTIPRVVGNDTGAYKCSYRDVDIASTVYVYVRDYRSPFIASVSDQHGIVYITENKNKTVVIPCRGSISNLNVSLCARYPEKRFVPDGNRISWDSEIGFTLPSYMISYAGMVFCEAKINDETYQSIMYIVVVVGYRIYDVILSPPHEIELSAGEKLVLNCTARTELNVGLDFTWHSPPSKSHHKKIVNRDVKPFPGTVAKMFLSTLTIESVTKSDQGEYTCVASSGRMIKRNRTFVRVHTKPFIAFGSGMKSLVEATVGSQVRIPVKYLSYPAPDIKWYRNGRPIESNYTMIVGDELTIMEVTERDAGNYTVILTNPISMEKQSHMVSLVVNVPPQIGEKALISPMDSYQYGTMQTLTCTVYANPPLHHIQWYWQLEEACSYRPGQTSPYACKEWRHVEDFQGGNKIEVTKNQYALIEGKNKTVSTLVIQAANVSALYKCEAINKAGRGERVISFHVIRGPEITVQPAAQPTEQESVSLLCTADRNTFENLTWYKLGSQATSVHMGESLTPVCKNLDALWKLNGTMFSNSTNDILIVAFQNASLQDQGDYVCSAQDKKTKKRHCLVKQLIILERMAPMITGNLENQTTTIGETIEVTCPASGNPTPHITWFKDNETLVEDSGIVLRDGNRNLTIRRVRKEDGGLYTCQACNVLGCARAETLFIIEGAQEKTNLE

[3] = target: rat VEGFR2 (rat, UniProt O08775 20-760, limits assumed); assay: Biacore, rat VEGFR2
rat VEGFR2, sequence (O08775 20-760 limits assumed): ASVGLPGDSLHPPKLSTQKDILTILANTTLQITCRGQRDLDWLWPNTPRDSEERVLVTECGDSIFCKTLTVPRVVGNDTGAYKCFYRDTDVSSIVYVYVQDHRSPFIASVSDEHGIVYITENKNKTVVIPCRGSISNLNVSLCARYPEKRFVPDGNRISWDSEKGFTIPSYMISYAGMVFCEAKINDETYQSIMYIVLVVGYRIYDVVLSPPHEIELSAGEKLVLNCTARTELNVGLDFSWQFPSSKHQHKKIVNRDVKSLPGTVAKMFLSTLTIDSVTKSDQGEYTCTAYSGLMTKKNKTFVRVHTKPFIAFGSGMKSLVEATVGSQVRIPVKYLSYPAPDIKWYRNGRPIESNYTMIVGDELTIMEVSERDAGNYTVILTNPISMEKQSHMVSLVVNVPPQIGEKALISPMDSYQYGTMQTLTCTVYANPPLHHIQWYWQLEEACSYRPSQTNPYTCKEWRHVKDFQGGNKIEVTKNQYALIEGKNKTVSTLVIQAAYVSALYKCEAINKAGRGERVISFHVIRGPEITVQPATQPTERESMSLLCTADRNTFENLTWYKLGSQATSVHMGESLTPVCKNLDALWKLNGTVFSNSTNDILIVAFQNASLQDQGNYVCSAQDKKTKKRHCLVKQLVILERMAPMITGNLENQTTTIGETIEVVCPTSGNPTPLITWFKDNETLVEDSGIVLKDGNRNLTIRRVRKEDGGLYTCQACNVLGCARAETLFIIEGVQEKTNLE

Row | Binder | koff [1] | kon [1] | koff [2] | kon [2] | koff [3] | kon [3]
1 | B1 | 0.000659 s⁻¹ | 86200 M⁻¹ s⁻¹ | 0.00181 s⁻¹ | 22900 M⁻¹ s⁻¹ | 0.00143 s⁻¹ | 33200 M⁻¹ s⁻¹
2 | B2 | 0.000282 s⁻¹ | 113000 M⁻¹ s⁻¹ | 0.00128 s⁻¹ | 43800 M⁻¹ s⁻¹ | 0.000899 s⁻¹ | 64500 M⁻¹ s⁻¹
